Patent publication US20160200799A1
Where a chain is given by its changes, count along the chain named.

B1: Group 48 representative clone F083-389, Fab-PP-type antibody (Fab, V domains shown)
VH: QVQLVQSGAEVKKPGSSVKVSCKASGDIFNKFAITWVRQAPGQGLEWMGGITALFATTSYAQKFQDRVTINWDESTTTAFMELSSLRFEDTAVYYCARGPNYYETYLDNWGQGTLVTVSS
VL: EIVLTQSPTILSASVGDRVTITCRASQSISKWLAWYQQKPGKVPKLLIYMASTLESGVPSRFSGSGSGSEFTLTISSLQPGDFATYYCQQYNSYPRTFGQGTKVEINV
B2: Group 52 representative clone F083-328, Fab-PP-type antibody (Fab, V domains shown)
VH: QVQLVQSGAEVKKPGSSVKLSCKASGGTLRSYALSWVRQAPGEGLEWMGGISAIFNTATYAQNVQGRVTITADESTNTFYLEVSSLRSDDTAVYYCATSGTYYVSFFDYWGQGTLVTVSS
VL: DIVLTQSPSTLSASVGDRVTLTCRASQSIGSLMAWYQQQPGKPPKLLIYRASNLETGVPSRFTGSGSGTEFALTISSLQPDDVGTYYCQHFKTFSRTFGQGTKVEIK
B3: Group 42 representative clone F083-249, Fab-PP-type antibody (Fab, V domains shown)
VH: QVQLVQSGSEVKKPGSSVKVSCKASGVTFSSYAISWVRQAPGQGLEWMGGISPMFGTTRYAQKFQGRVTITADESTRTGFMELSSLRSGDTAVYYCARSPTYYPGALDMWGQGTTVTVSS
VL: DVVMTQSPSLLSASVGDRVTITCRASQAIANFVSWFQQKPGEAPKSLIHAASTLQGGVPPRFSGSGYGAVFTLTITNLQPEDFATYFCQQYNSLPFTFGPGTDVEVR
B4: Group 1 representative clone F080-227, Fab-PP-type antibody (Fab, V domains shown)
VH: QVQLQESGAEVKKPGSSVKVSCKASGGIFRRNAISWVRQAPGQGLEWMGGIIAIFGTANYAQKFQGRVTITADESTSTVYMELSSLRPEDTAVYYCARGPNYYENFFDYWGQGTLVTVSS
VL: DIVMTQSPSSLSASVGDRLDLTCRASQDIANSLAWYKQRPGKAPELLVFGASRLEGGVPSRFSGTRAGTDFTLTISSLQPEDLGTYFCQQYFSFPRTFGQGTTLDLR
B5: Group 55 representative clone F083-305, Fab-PP-type antibody (Fab, V domains shown)
VH: EVQLVESGAEVKKPGSSVKVSCKASGSIFSNYAISWVRQAPGQGLEWMGGIVPMFGTTRFAQKFQGRVTITADESRSTAYMELNNLISEDTAVYYCARAPLIYNWYFDLWGRGTLVTVSS
VL: EIVLTQSPSFVSASVGDRVSITCRASQGISSWLAWYQQKPGKAPRLLIYGASNLQSGVPSRFSGSGSGTDYTLTINSLQPEDFATYYCQQARTFPVTFGQGTKLEIK
B6: Group 56 representative clone F083-318, Fab-PP-type antibody (Fab, V domains shown)
VH: B5 VH with E6Q, K23Q, S35N, M54I, V68L, S75P, F107Y
VL: EIVLTQSPSSLSASVGDRVTITCRASQGISNYLAWYQQKPGKVPKLLIYAASTLQSGVPSRFSGSGSGTDFTLTISSLQPEDVATYYCQKYNSAPHTFGPGTKVDIK

Tests used:
Assay in all cases: cell-based or functional assay
[1] = molecular target: Influenza virus A/Brisbane/59/2007 (H1N1) (Influenza A virus A/Brisbane/59/2007 (H1N1))
[2] = molecular target: Influenza virus A/Panama/2007/1999 (H3N2) (Influenza A virus A/Panama/2007/1999 (H3N2))
[3] = molecular target: Influenza virus A/Suita/1/2009pdm (H1N1 2009 pandemic) (Influenza A virus A/Suita/1/2009pdm (H1N1pdm))
[4] = molecular target: Influenza virus A/California/7/2009pdm (H1N1pdm) (Influenza A virus A/California/7/2009pdm (H1N1pdm))
[5] = molecular target: Influenza virus A/Indonesia/5/2005/PR8-IBCDC-RG2 (H5N1) (Influenza A virus A/Indonesia/5/2005/PR8-IBCDC-RG2 (H5N1))

Binder | HI activity [1] [µg/mL] | Neutralizing activity (%) at 100 µg/ml [1] [%] | Neutralizing activity (%) at 250 µg/ml [1] [%] | Neutralizing activity (%) at 100 µg/ml [2] [%] | Neutralizing activity (%) at 250 µg/ml [2] [%] | Neutralizing activity (%) at 100 µg/ml [3] [%] | Neutralizing activity (%) at 250 µg/ml [3] [%] | HI activity [4] [µg/mL] | Neutralizing activity (%) at 100 µg/ml [5] [%] | Neutralizing activity (%) at 250 µg/ml [5] [%]
B1 | > 160 | 98 | 100 | -0.7 | 19.9 | -18.3 | 100 | > 160 | 54.6 | 60.8
B2 | > 160 | 100 | 100 | 9.6 | 5.5 | 100 | 100 | > 160 | 86.9 | 93.2
B3 | > 160 | 100 | 100 | 15.8 | 34.2 | 100 | 97.7 | > 160 | 96.5 | 98.2
B4 | > 160 | 96 | 98 | -0.7 | -0.7 | 100 | 100 | > 160 | 67.6 | 52.9
B5 | > 160 | 96.1 | 96.1 | -17.1 | -6.8 | 88.3 | 69.5 | > 160 | 2.4 | 22.4
B6 | > 160 | 84.2 | 92.1 | 7.5 | 7.5 | 13.5 | 27.9 | > 160 | -9.5 | 1.7
